Measured values as given in patent publication US12583908B2, “Albumin protein variants, production thereof and uses of same” (Yeda Research and Development Co. Ltd., priority 2022, dated 2026).
Entries after “also recorded” stand apart in the source; their conditions may differ.

B1: HSA3: most highly mutated human albumin variant, 73 mutations all over the protein (Table 2) (protein)
chain: MDAHKSEVAHRFKDLGEENFKALVLIAFAQYLQKCPFEELVKMVKEVTEFAKKCVADETAENCDKSLHTLFGDKLCQVATLRETYGEMADCCAKQDPERHECFLQHKDDNPNLPRLERPEVDVMCKAFHDNEETFLNKYLYEIARRHPYFYAPELLYFAKRYKKAFTECCQAEDKAACLLPKLDALREEGKESSAKQRYKCAILQKFGERVFKAWAIARLSQRFPKAPFEEISKLVTDLTKVHKACCHGDMLECMDDRAKLAKYICENQDSISSKLKECCEKPLLERSHCIAEVENDDKPEDLPPLAADFVESKDVCKNYAEAKDVFLARFLYEYARRHPDYSVTLLLRIAKTYEDTLEKCCKAEDPHECYAKVEEEFKKLVEETQNLIKQNCELFEKLGEYYFQNALLIRYTKKMPQVPTDTLVELTRNLGKVGSKCCKLPEEKRLPCIEDYLSIVLNQLCVLHEKTPVNDRVTKCCTESLVNRRHCFSALEVDETYVPKEFNAETFTFHADLCTLSEEERQIMKQKFLVELVKHKPKATEEQLKAVMDDFTAFVEKCCKAEDPETCFAEEGSKLIAASQAALGL
modifications: Albumin Synthetic variant
B2: HSA1: human serum albumin variant with 16 mutations, no surface and no binding site mutations (Table 2) (protein)
chain: MDAHKSEVAHRFKDLGEENFKALVLIAFAQYLQQCPFEDLVKMVNEVTEFAKTCVADESAENCDKSLHTLFGDKLCTVATLRETYGEMADCCAKQEPERNECFLQHKDDNPNLPRLVRPEPDVMCTAFHDNEETFLKKYLYEIARRHPYFYAPELLYFAKRYKAAFTECCQAADKAACLLPKLDELREEGKASSAKQRHKCAILQKFGERAFKAWAVARLSQRFPKAEFAEVSKLVTDLTKVHTECCHGDLLECADDRADLAKYICENQDSISSKLKECCEKPLLEKSHCIAEVENDEMPADLPSLAADFIESKDVCKNYAEAKDVFLGMFLYEYARRHPDYSVVLLLRLAKTYETTLEKCCAAADPHECYSKVFDEFKPLIEEPQNLIKQNCELFEQLGEYKFQNALLIRYTKKVPQVSTPTLVEVARNLGKVGSKCCKHPEAKRMPCAEDYLSIVLNQLCVLHEKTPVSDRVTKCCTESLVNRRPCFSALEVDETYVPKEFNAETFTFHADICTLSEEERQIKKQTALVELVKHKPKATKEQLKAVMDDFSAFVEKCCKADDKETCFAEEGKKLIAASQAALGL
modifications: Albumin Synthetic variant

How the values were obtained:
[1] = Thermal stability by nanoDSF; format: physicochemical; conditions: His-tagged variants and commercial WT; 20 to 95° C. at 1° C./min
Method: (§1) Thermal stability measurements. Thermal stability of BSA and HSA variants (His-tagged form) and of commercial WT HSA and BSA (Sigma-Aldrich A1653 and A7638, respectively) was measured by nanoscale differential scanning fluorimetry (nanoDSF), in Prometheus NT.48 instrument (NanoTemper). The temperature was increased from 20° C. to 95° C. at 1° C./min ramp. Thermal stability of HSA variants was also measured by differential scanning calorimetry (DCS) in VP-DSC instrument (Malvern), with heating from 20° C. to 95° C. at 1° C./min and cooling at the same rate.

[2] = tested on: HEK293T cells; experiment: HEK293T cell culture with albumin variants; format: cell-based, human; conditions: 1 mg/ml albumin, medium with 5% FBS, 5 days
Method: HEK293T adherent cells were grown in DMEM supplemented with GlutaMAX, NEAA and 5% FBS (all from Gibco) at 37° C., 5% CO2. To test the viability of the cultured cells in the presence of PROSS BSA2, HSA1 and HSA3 in comparison to the commercial BSA or HSA, respectively, cells (˜3×10^3) were seeded in 24-well plate and followed each day for 5 days. All the albumin variants were added to the cells at 1 mg/ml in duplicates, and their effect was analyzed. As a control, no protein was added to the growth medium. In each time point, cells were collected and the number of total cells, live cells and % of viable cells were determined automatically using Brightfield Cell Counter DeNovix.

[3] = Thermal stability by differential scanning calorimetry (DSC); format: physicochemical
Method: as §1

[4] = tested on: BsiEI; experiment: DNA restriction of pET28b(+) with BsiEI in albumin-containing buffer; format: biochemical; conditions: 0.1 mg/ml albumin, 60-80° C., 15 min
Method: Samples of pET28b(+) vector (1.5 μg) were restricted by BsiEI (10U, NEB) in 15 μl reaction volumes containing the Cutsmart buffer (NEB) or a reconstituted equivalent (50 mM Potassium acetate, 20 mM Tris-acetate, Mg-acetate, pH 7.9) supplemented with 0.lmg/ml of either commercial BSA (Sigma), HSA1, BSA2, or HSA3 variants (tagless, after gel filtration and ion exchange purification) at temperatures of 60-80° C. for 15 min using a gradient PCR (SensoQuest). Samples were then supplemented with 5 μl DNA sample buffer (150 mM TrisHCl pH 7.4, 5% SDS, 50% Glycerol, 0.05% Bromophenol Blue), heated (60° C., 10 min), and resolved on a 2% agarose-TAE gel containing 0.5 μg/mL Ethidium Bromide for 1.5h at 120V.

[5] = tested on: NcoI and XhoI enzymes; experiment: DNA restriction of pET29b with NcoI and XhoI in albumin-containing buffer; format: biochemical; conditions: 0.1 mg/ml albumin, overnight at 37° C.
Method: DNA Restriction. pET29b vector with 900 bp insert was restricted with NcoI and XhoI enzymes (NEB) overnight at 37° C., using the following buffers: rCutsmart buffer (NEB, contains 0.1 mg/ml rBSA), buffer 4 (NEB, identical composition to rCutsmart buffer, but no BSA), and buffer 4 supplemented with HSA1, BSA2, and HSA3 variants (tagless, after gel filtration and ion exchange purification) at 0.1 mg/ml.

[6] = Gel filtration (size exclusion) chromatography; format: physicochemical
Method: At the final stage, all the variants were purified by gel filtration chromatography, using HiLoad Superdex 200 column for preps coming from large scale expression (>500 ml culture) and HiLoad Superdex 75 column for preps coming from medium scale expression (50-500 ml culture).

[7] = Crystal structure of HSA1 with warfarin, bound myristate; format: binding; conditions: no myristate added
Method: Crystallization and structure determination of HSA1 and Warfarin. Tagless HSA1 protein obtained from SUMO-HSA production was concentrated to 100 mg/ml in Tris buffer pH 7.0 and supplemented with 1 mM warfarin from 100 mM stock in DMSO. Crystals of HSA1 and warfarin were obtained using the hanging-drop vapor diffusion method with a Mosquito robot (TTP LabTech). All datasets were collected under cryogenic conditions at the European Synchrotron Radiation Facility (ESRF), Grenoble, France at beamline ID30B. The crystals were grown from 0.05 M NaCl, 10% PEG 4000 and 0.05 Tris pH=8.0. The crystals formed in the space group P1, with two monomers per asymmetric unit and diffracted to 2.0 Å resolution. The integrated reflections were scaled using the AIMLESS program (20) from the CCP4i2 program suite (21). HSA1 structure determined by molecular replacement with PHASER (22) using the structure of human serum albumin in complex with aristolochic acid (PDB code 6HSC). All steps of atomic refinement were carried out with the CCP4i2/REFMAC5 program (23) and by PHENIX.refine (24). The models were built into 2 mFobs-DFcalc, and mFobs-DFcalc maps by using the COOT program (25). The model was optimized using PDB_REDO (25, 26) and was evaluated with MOLPROBITY (27). […] Details of the refinement statistics of HSA1 and Warfarin structure are described in Table 1.

| Molecule | Melting temperature nanoDSF [1] | Effect on number of HEK293T cells [2] | Effect on viability of HEK293T cells [2] | Thermal stability [3] | Reversibility of thermal unfolding ([3]; heating and cooling) | Melting temperature (DSC) ([3]; heating at 1° C./min) | Restriction performance, pET28b(+) digested with BsiEI [4] | Restriction performance, pET29b(+) digested with NcoI and XhoI [5] | Oligomeric state by gel filtration [6] | Fatty-acid (myristate) binding [7] |
| --- | --- | --- | --- | --- | --- | --- | --- | --- | --- | --- |
| B1 | > 95 °C | no adverse effect | no adverse effect | stable beyond the boiling point | reversible temperature-dependent folding and unfolding | 100.5 °C | performed equally well | performed equally well |  |  |
| B2 | 86 °C | no adverse effect | no adverse effect |  |  |  | performed equally well | performed equally well | completely monomeric | indistinguishable from the wild type; also recorded: four molecules of myristate fatty acid are present in the structure |
